From doi:10.1101/554881, “LRRK2-mediated phosphorylation of HDAC6 regulates HDAC6-cytoplasmic dynein interaction and aggresome formation” (bioRxiv, 2019)

Biological target: T1, GST-tagged human LRRK2 wild type (amino acids 970-2527) (human, UniProt Q5S007 970-2527)
T1 construct: LRRK2, human, amino acids 970-2527; also called GST-LRRK2; GST-LRRK2 (aa 970-2527); source: bought: Invitrogen
Test: pull-down; GST-LRRK2 (aa 970-2527; 1 µg) or GST (1 µg) incubated with His-HDAC6 (1 µg) in 250 µl RB100 buffer (25 mM HEPES pH 7.5, 100 mM KOAc, 10 mM MgCl2, 1 mM DTT, 0.05% Triton X-100, 10% glycerol) for 1 h at 4°C; captured on glutathione sepharose; immunoblot
Settings: both partners purified

T1 sequence (Q5S007 970-2527): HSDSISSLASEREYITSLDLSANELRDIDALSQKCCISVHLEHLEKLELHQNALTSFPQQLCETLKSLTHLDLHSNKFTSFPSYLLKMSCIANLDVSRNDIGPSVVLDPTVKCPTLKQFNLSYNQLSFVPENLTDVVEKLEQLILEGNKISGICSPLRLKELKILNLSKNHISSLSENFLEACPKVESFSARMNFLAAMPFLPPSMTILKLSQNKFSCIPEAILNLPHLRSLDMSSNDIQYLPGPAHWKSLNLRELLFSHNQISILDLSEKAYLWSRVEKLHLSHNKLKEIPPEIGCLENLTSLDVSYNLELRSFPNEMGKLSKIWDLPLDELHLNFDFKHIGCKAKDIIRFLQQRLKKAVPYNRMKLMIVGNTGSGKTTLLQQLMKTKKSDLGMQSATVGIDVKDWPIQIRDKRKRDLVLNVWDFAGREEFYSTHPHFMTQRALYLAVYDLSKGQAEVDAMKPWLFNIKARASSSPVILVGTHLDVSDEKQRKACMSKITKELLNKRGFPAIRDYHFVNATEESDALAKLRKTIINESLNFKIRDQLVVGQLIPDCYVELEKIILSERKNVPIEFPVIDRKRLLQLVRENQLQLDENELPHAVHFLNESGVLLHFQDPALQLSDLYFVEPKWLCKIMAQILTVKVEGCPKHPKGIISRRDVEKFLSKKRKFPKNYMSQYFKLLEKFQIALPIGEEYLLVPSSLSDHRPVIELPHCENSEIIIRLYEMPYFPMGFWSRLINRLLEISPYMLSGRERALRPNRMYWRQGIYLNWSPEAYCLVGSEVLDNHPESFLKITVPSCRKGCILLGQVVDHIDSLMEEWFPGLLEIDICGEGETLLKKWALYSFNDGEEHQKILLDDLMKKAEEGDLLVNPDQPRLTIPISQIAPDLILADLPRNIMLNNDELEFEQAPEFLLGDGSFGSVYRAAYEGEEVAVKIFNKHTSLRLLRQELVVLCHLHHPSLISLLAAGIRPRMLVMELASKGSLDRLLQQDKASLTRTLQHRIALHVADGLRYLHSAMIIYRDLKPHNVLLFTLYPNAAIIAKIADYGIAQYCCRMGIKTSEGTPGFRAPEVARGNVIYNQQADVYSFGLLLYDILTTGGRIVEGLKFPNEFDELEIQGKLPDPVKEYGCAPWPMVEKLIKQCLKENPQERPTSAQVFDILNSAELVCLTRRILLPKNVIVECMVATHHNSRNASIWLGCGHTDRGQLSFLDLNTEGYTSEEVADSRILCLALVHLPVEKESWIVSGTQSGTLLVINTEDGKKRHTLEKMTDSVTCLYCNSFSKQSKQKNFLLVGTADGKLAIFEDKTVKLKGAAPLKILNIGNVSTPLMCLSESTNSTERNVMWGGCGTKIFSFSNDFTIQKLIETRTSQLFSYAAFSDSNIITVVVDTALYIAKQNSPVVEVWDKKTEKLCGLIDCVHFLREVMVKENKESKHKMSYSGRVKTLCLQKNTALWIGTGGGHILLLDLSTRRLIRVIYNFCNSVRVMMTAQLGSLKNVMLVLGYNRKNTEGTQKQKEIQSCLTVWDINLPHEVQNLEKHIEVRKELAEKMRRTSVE

B1: recombinant His-tagged human HDAC6 protein (enzyme, UniProt Q9UBN7 1-1215, looked up)
chain: MTSTGQDSTTTRQRRSRQNPQSPPQDSSVTSKRNIKKGAVPRSIPNLAEVKKKGKMKKLGQAMEEDLIVGLQGMDLNLEAEALAGTGLVLDEQLNEFHCLWDDSFPEGPERLHAIKEQLIQEGLLDRCVSFQARFAEKEELMLVHSLEYIDLMETTQYMNEGELRVLADTYDSVYLHPNSYSCACLASGSVLRLVDAVLGAEIRNGMAIIRPPGHHAQHSLMDGYCMFNHVAVAARYAQQKHRIRRVLIVDWDVHHGQGTQFTFDQDPSVLYFSIHRYEQGRFWPHLKASNWSTTGFGQGQGYTINVPWNQVGMRDADYIAAFLHVLLPVALEFQPQLVLVAAGFDALQGDPKGEMAATPAGFAQLTHLLMGLAGGKLILSLEGGYNLRALAEGVSASLHTLLGDPCPMLESPGAPCRSAQASVSCALEALEPFWEVLVRSTETVERDNMEEDNVEESEEEGPWEPPVLPILTWPVLQSRTGLVYDQNMMNHCNLWDSHHPEVPQRILRIMCRLEELGLAGRCLTLTPRPATEAELLTCHSAEYVGHLRATEKMKTRELHRESSNFDSIYICPSTFACAQLATGAACRLVEAVLSGEVLNGAAVVRPPGHHAEQDAACGFCFFNSVAVAARHAQTISGHALRILIVDWDVHHGNGTQHMFEDDPSVLYVSLHRYDHGTFFPMGDEGASSQIGRAAGTGFTVNVAWNGPRMGDADYLAAWHRLVLPIAYEFNPELVLVSAGFDAARGDPLGGCQVSPEGYAHLTHLLMGLASGRIILILEGGYNLTSISESMAACTRSLLGDPPPLLTLPRPPLSGALASITETIQVHRRYWRSLRVMKVEDREGPSSSKLVTKKAPQPAKPRLAERMTTREKKVLEAGMGKVTSASFGEESTPGQTNSETAVVALTQDQPSEAATGGATLAQTISEAAIGGAMLGQTTSEEAVGGATPDQTTSEETVGGAILDQTTSEDAVGGATLGQTTSEEAVGGATLAQTTSEAAMEGATLDQTTSEEAPGGTELIQTPLASSTDHQTPPTSPVQGTTPQISPSTLIGSLRTLELGSESQGASESQAPGEENLLGEAAGGQDMADSMLMQGSRGLTDQAIFYAVTPLPWCPHLVAVCPIPAAGLDVTQPCGDCGTIQENWVCLSCYQVYCGRYINGHMLQHHGNSGHPLVLSYIDLSAWCYYCQAYVHHQALLDVKNIAHQNKFGEDMPHPH
notes: Histone deacetylase 6 (HDAC6), human, full length; also called His-HDAC6; full-length human His-HDAC6; source: bought: EMD Millipore
B1: binds.
